Reference: the supplement of paper PMC9170038

Legend:
MS2 coat protein [1] = test: apparent KD of MS2 coat protein, switch ON state; designed switch direction (-1 OFF switch, 1 ON switch): -1; higher = weaker reporter binding; conditions: FMN input: 0 or 200 uM; Eterna round: R93 (includes R88 designs)
Method in brief: (§1)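 With or without constant ligand, designed RNA switches in 100 mM Tris-HCl pH 7.5, 80 mM KCl and 4 mM MgCl2 were titrated with SNAP-549-labelled MS2 coat protein. Concentrations went up in twofold steps from 0.7 or 1.5 nM to 3 µM. The switches had been transcribed on-chip from Illumina sequencing clusters, and apparent KD is the per-design median of normalised cluster binding-curve fits.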

MS2 coat protein [2] = test: apparent KD of MS2 coat protein, switch OFF state (with FMN for OFF switches, without FMN for ON switches); designed switch direction (-1 OFF switch, 1 ON switch): -1; higher = weaker reporter binding; conditions: FMN input: 0 or 200 uM; Eterna round: R93 (includes R88 designs)
Method in brief: as §1

Sequence	apparent KD of MS2 coat protein (MS2 coat protein [1])	apparent KD of MS2 coat protein (MS2 coat protein [2])
AAGGUAUAAGGAUAUACAUAGAUACAGACACAUGUUCAAGUACAUGAGGAUCACCCAUGUAGAAGGUAUAUAUA [AJ 13]	29.2 nM	26.7 nM
AAGGUUCGAGGAUAUACAUAGAUACAGAUACAUGUAGACGUACAUGAGGAUCACCCAUGUAGAAGGCGAAUAUA [AJ 25]	69.7 nM	142 nM
AAGUACUCAGGAUAUACAUGAGGAUCACCCAUGUGAUAAAAGCGUAAAAAACGCACAUGUAGAAGGGAGUACAA [JL In thr Red Again 2]	140 nM	84 nM
AAGUUGUCAGGAUAUGCUUGUCGUCACAAAAGUGAUGACGAGCAGAAGGGACAUGAGGAUCACCCAUGUAAAGA [JL eternac mod 2]	65.8 nM	117 nM
AAUAAAGCAGGAUAUACUAAAGAAAUGAAAAGAAAUAAAGAACAUGAGGAUCACCCAUGUAGAAGGGCUAAUAA [Semqen]	42.8 nM	18.4 nM
AAUAACCGAGGAUAUACAAAACCUGUGAUCUAGUGGAUUUUACAUGAGGAUCACCCAUGUAGAAGGCGGACAAG [Atdiiste]	49.9 nM	183 nM
AAUAACUCAGGAUAUACUAAAGAAAUGAAAAGAAAUAAAGAACAUGAGGAUCACCCAUGUAGAAGGGAGAAUAA [Wazad]	94.2 nM	55.1 nM
AAUAAGAGAGGAUAUACUAAAGAAAUGAAAAGGGAUAAAGAACAUGAGGAUCACCCAUGUAGAAGGCUCAAUAA [Khyan]	24.3 nM	40.3 nM
AAUAAGUCAGGAUAUACUAAAGAAAUGAAAAGAAAUAAAGAACAUGAGGAUCACCCAUGUAGAAGGGACAAUAA [Anati Djedkare]	100 nM	53.6 nM
AAUAAGUGAGGAUAUCCAAAUAGUAGAUAAGAUUCCCUAAAGGAGAAGGCACAUGAGGAUCACCCAUGUAAAUA [JR_Exc004_Sub006]	36.1 nM	31.5 nM
ACAGUUACAGGAUAUACAUGGGAAAAUAAAAAUAAAAAACUACAUGAGGAUCACCCAUGUAGAAGGGUAACUGA [Ex2 Design 198: Random 13]	77.5 nM	26.6 nM
ACCAAUGCAGGAUAUACAUGAGGAUCACCCAUGUAUAACCUACAUAGAUGAUAAAAAUGUAGAAGGGCAUUGGA [EX3 232: Super Stable 32]	16 nM	20.3 nM
ACCUGACAUGAGGAUCACCCAUGUCAGGAUAUGUACAUCAGGAAAAAAAAACUGAUGUACAGAAGGGACAAGGG [Design 6: Super Stable - A-U mutation 2]	17.8 nM	13.7 nM
ACGUACUGAGGAUAUACGAACAUGUCAAAAGACGUGAAGGGACAUGAGGAUCACCCAUGUAGAAGGCAGUACGA [Mat - Exclusion 2 - JL mod - D7]	60.7 nM	172 nM
ACGUGACAUGAGGAUCACCCAUGUUAGGAUAUGCGAAUUCAAAAUCAGCUAACGCUGAGCAGAAGGAACAUGGU [Esriange]	36.2 nM	88.9 nM
ACUUAGACAGGAUAUACGUGAGUGGAAAAAGUGUUUCCACUACAUGAGGAUCACCCAUGUAGAAGGGUCUAAGA [Ex2 Design 181: Random 6B]	48.8 nM	82.3 nM
AGAAAACAUGAGGAUCACCCAUGUAAGGAUAUGCUGAAAAACACGGAAAAAACGUGCAGCAGAAGGUACAAAAA [Mat - Exclusion 1 - Eli mod - D97]	17.8 nM	38.6 nM
AGAAAACAUGAGGAUCACCCAUGUCAGGAUAUCGAUGUCCAAAAAAAAGUGCGGGACUCGAGAAGGGACUUGGG [Mod of Erbelaed v.2 (favor state 2,lowered kcal by 2.7)]	27.2 nM	24.6 nM
AGAAAACAUGAGGAUCACCCAUGUGAGGAUAUCGAUGUCCAAAAAAAAGUGCGGACCUCGAGAAGGCACAUUGG [Mod of Erbelaed v.3 (favor state 2,lowered kcal by 1)]	49.5 nM	51.1 nM
AGAAAACAUGAGGAUCACCCAUGUGAGGAUAUGCAAAUAUAUACGAAAGAUUAUAAAAGCAGAAGGCACAAAAG [Meechl MS2 Ex1]	35.8 nM	57.7 nM
AGAAACCUAGGAUAUACAUGAGGAUCACCCAUGUAAAGAAAGAAGGGAGCCACAAGAAGUAGAAGGAGGAAGAA [JR_Exc003_Sub005]	16.9 nM	33.4 nM
AGAAAGUCAGGAUAUACGAAUAAGAAAAAAGACGAGAACGGACAUGAGGAUCACCCAUGUAGAAGGGACAAGAA [Diamond 15]	91.2 nM	40.6 nM
AGAGGACAUGAGGAUCACCCAUGUGAGGAUAUGCACAACUAAGGACAAGAUCGCUAUAGCAGAAGGCACGUACU [JR_EXc001_Sub809]	39.3 nM	33.8 nM
